Earlier results as cited in publication PMC11155677.

Molecular target: Lys115 (UniProt position 115, LSAYPKKLGYP)

For “Acetoacetate decarboxylase (AADase) (not stated (Clostridium acetobutylicum inferred))”, which pKa is on record?
The pKa was 6.
